Results from patent US20160039936A1, “FIBROBLAST GROWTH FACTOR RECEPTOR INHIBITION FOR THE TREATMENT OF DISEASE” (UNIVERSITY OF MIAMI, priority 2011, published 2016).

B1: FGF23: recombinant mouse FGF23, 6His-tagged Tyr25-Val251 (Arg179Gln) (R&D Systems) (protein)
chain: YPDTSPLLGSNWGSLTHLYTATARTSYHLQIHRDGHVDGTPHQTIYSALMITSEDAGSVVITGAMTRRFLCMDLHGNIFGSLHFSPENCKFRQWTLENGYDVYLSQKHHYLVSLGRAKRIFQPGTNPPPFSQFLARRNEVPLLHFYTVRPRRHTQSAEDPPERDPLNVLKPRPRATPVPVSCSRELPSAEEGGPAASDPLGVLRRGRGDARGGAGGADRCRPFPRFV
modifications: left off: small tags and cut ends
B2: FGF2: recombinant mouse FGF2 (Ala11-Ser154) (R&D Systems) (protein)
chain: ALPEDGGAAFPPGHFKDPKRLYCKNGGFFLRIHPDGRVDGVREKSDPHVKLQLQAEERGVVSIKGVCANRYLAMKEDGRLLASKCVTEECFFFERLESNNYNTYRSRKYSSWYVALKRTGQYKLGSKTGPGQKAILFLPMSAKS

Experiments:
NFAT = NFAT gene reporter assay in NRVM; format: cell-based, rat; conditions: FGF 25 ng/ml, 2 hours
Experimental: The assay was done as described previously (Kuhn et al., 2009). Briefly, 24 hours after plating, NRVM were serum-starved and infected by an adenovirus (AdNFAT-luc, 20 moi) carrying a firefly luciferase construct under the transcriptional control of three consensus NFAT binding sites (Biomyx). To enable normalization of the ensuing measurements, NRVMs were also infected with an adenovirus (AdRenilla, 10 moi) encoding a renilla luciferase under the transcriptional control of a CMV promoter. Cells were incubated in FGF23 or FGF2 at 25 ng/ml for 2 hours after pre-treatment with or without cyclosporine A (1 μg/ml; Sigma-Aldrich), AZD4547 (5 nM; ChemieTek), or anti-FGFR4/U3-11 (U3Pharma; 10 μg/ml) for 60 minutes. Chemiluminescence was detected and quantified in 4×10^5 cells using the Dual-Luciferase Reporter Assay System (Promega) according to the manufacturer's instructions, and Infinite M200 PRO reader (Tecan). Firefly luciferase activities were then normalized to renilla luciferase activities. All experiments were conducted in triplicates and repeated three times.

[1] = system: neonatal mouse ventricular myocytes (NMVM); test: Hypertrophic growth and β-MHC of isolated NMVM (wild-type or FGFR4−/−); format: cell-based; conditions: 48 h
Experimental: NMVM were isolated enzymatically (Kreusser et al., 2014). Briefly, hearts from 1-3 day-old mice were harvested, minced in PBS/glucose and further digested with collagenase type 2 (0.2% w/v) and DNase (0.05% w/v) on a rotary shaker at 37° C. for 11 minutes. Cells were then released from the tissue by triturating the suspension twice with a standard 10 ml plastic serological pipette, transferred to DF10 medium (Dulbecco's Modified Eagle Medium/Ham's Nutrient Mixture F12 adjusted to 17 mM NaHCO2 containing 2 mM L-glutamine, 1% P/S and 10% FBS), and stored on ice. The remaining tissue was further incubated in PBS/glucose/collagenase/DNase solution on a rotary shaker at 37° C. for 11 minutes. The trituration and incubation steps were repeated 5-7 times until the tissue was completely dissolved. Cells were pelleted at 300 g for 5 minutes, resuspended in DF20 media (Dulbecco's Modified Eagle Medium/Ham's Nutrient Mixture F12 adjusted to 17 mM NaHCO2 containing 2 mM L-glutamine, 1% P/S and 20% FBS), and preplated for 1 hour to eliminate fibroblasts. Remaining cells were counted using a hemocytometer and plated on glass and plastic surfaces, which were coated with laminin (Sigma-Aldrich; 10 μg/ml in PBS) at room temperature for 1 hour prior to plating. For immunofluorescence analysis, 3×10^5 cells were seeded per well on glass coverslips in 24-well plates. For Western blot analyses of total protein extracts, 5×10^6 cells were seeded in 10 cm-culture dishes. Cells were left undisturbed in DF20 medium at 37° C. for 72 hours, starved overnight with DF medium (Dulbecco's Modified Eagle Medium/Ham's Nutrient Mixture F12 adjusted to 17 mM NaHCO2 containing 2 mM L-glutamine, 1% P/S), and treated in DF medium with recombinant FGF23, FGF2 (both at 100 ng/ml) or AngII (1 μM, Sigma-Aldrich) for 48 hours.
HEK293 cells, NRVM or NMVM were treated with growth factors for 30 minutes to analyze activation of signal transduction mediators, or for 48 hours to analyze expression levels of hypertrophic marker proteins. Cells were scraped from 6-well plates using 500 μl CHAPS extraction buffer (20 mM Tris-HCl pH7.5, 500 mM NaCl, 0.5% CHAPS, protease inhibitor cocktail (Roche), protein phosphatase inhibitors [Sigma-Aldrich]) and incubated on ice for 30 minutes. The cell lysate was centrifuged at 14,000 rpm and 4° C. for 30 minutes, and the supernatant boiled in sample buffer and analyzed by SDS-PAGE and immunoblotting. For protein extraction from mouse hearts, tissue was isolated, minced and homogenized in RIPA extraction buffer (50 mM Tris-HCl pH 7.5, 200 mM NaCl, 1% Triton X-100, 0.25% DOC, 1 mM EDTA, 1 mM EGTA, protease and phosphatase inhibitors) at 1:10 (w:v), and protein lysates were prepared as described above.
Cultured cells were fixed in 2% PFA (in 5 mg/ml sucrose) for 5 minutes and permeabilized in 1% Triton X-100 (in PBS) for 10 minutes. We analyzed hypertrophic growth of isolated NRVM and NMVM on laminin-coated glass coverslips after 48 hours of treatment with growth factors. For FGFR4 expression and localization analyses, untreated NMVM from wild-type and FGFR4^−/− mice were immunolabeled. The mouse monoclonal antibody against sarcomeric α-actinin (EA-53; Sigma-Aldrich) was used at 1:1,000, and rabbit polyclonal anti-FGFR4 (C-16; Santa Cruz) at 1:50. Cy3-conjugated goat-anti mouse and Alexa488-conjugated goat-anti rabbit (Jackson Immuno Research) were used as secondary antibodies at 1:300. To visualize nuclei, fixed cells were incubated with 4′,6-diamidino-2-phenylindole (DAPI; 400 ng/ml in PBS) for 10 minutes. Immunofluorescence images were taken on a Leica TCS-SP5 confocal microscope with a 63× oil objective.
Myocyte cross-sectional area was measured based on α-actinin-positive staining using Leica AF6000 fluorescence software. […]

| Molecule | luciferase activity (NFAT) | expression of β-MHC protein in wild-type NMVM ([1]; immunoblot) | cross-sectional area of wild-type NMVM ([1]; FGF 100 ng/ml, AngII 1 μM) | expression of β-MHC protein in FGFR4−/− NMVM ([1]; immunoblot) | cross-sectional area (size) of NMVM from FGFR4−/− mice ([1]; FGF 100 ng/ml, AngII 1 μM) |
| --- | --- | --- | --- | --- | --- |
| B1 | significant elevation | increased expression | significant increases | – | – |
| B2 | did not increase | increased expression | significant increases | induced this effect | increase the size |
